Square brackets hold non-standard residues; d marks the D form. Dap = NC[C@H](N)C(=O)O
Target: His-tagged SRPK1ΔNS3 (UniProt Q96SB4 1-655)
Assay: MST

Sequence of His-tagged SRPK1ΔNS3 (Q96SB4 other isoform, or with tags, fused parts or gaps mutant): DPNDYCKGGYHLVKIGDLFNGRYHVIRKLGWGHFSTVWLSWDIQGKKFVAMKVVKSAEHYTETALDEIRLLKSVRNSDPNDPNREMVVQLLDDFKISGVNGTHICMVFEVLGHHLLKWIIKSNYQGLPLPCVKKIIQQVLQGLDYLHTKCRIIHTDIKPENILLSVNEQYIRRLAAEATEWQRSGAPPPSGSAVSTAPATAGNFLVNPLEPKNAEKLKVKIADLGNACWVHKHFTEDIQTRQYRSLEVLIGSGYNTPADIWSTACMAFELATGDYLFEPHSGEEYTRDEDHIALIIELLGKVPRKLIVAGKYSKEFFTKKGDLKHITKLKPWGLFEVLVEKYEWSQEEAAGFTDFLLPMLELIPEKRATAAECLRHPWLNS

B1: covalent docking blocker of SRPK (C-DBS) (peptide)
chain: Ac-RERARTRR[Dap](aryl‑SO2F)RARTRERARTR-NH2
Kd: 1.47 µM
